Results: the RNAGym collection of RNA variant scans (doi:10.7554/elife.80360)

B1: CPEB3 Ribozyme (parent)
chain: GGGGGCCACAGCAGAAGCGUUCACGUCGCGGCCCCUGUCAGAUUCUGGUGAAUCUGCGAAUUCUGCUGU

Variants of: B1
Experiment: self-cleavage, relative activity (ratio to wild type); higher = more cleavage; co-transcriptional

| Variant | self-cleavage |
| --- | --- |
| G2U A15G | 0.0981 |
| G3C G56C | 0.0668 |
| G3C G56A | 0.0675 |
| G2C U20G | 0.0688 |
| G3C G19U | 0.0242 |
| G2C A13C | 0.0327 |
| G3A A8C | 0.721 |
| G3A A8G | 0.527 |
| G3C U46G | 0.068 |
| G3U U61G | 0.114 |
| G2U G31A | 0.0769 |
| G2U G47A | 0.0706 |
| G2C U21C | 0.0403 |
| G2U G41C | 0.0505 |
| G2U G41U | 0.0665 |
| G2C C39A | 0.108 |
| G2C C39G | 0.0347 |
| G2U U55G | 0.0565 |
| G2U U55C | 0.0989 |
| G3A C34U | 0.91 |
| G3C U43C | 0.121 |
| G3U G19C | 0.0665 |
| G3U C66A | 0.0783 |
| G3C G48A | 0.117 |

| Variant | self-cleavage |
| --- | --- |
| G3C C45G | 0.0888 |
| G2U U62A | 0.0777 |
| G2U U62C | 0.108 |
| G3A G41C | 0.198 |
| G2C G41A | 0.0552 |
| G2U G17C | 0.0396 |
| G2U G17U | 0.039 |
| G2C C9U | 0.0977 |
| G3A G48C | 0.698 |
| G3U G17A | 0.0459 |
| G3C U53A | 0.0705 |
| G2C G65U | 0.102 |
| G2C G65A | 0.0284 |
| G2A U44G | 0.0958 |
| G2C U62C | 0.011 |
| G3U A42C | 0.0373 |
| G3U A42G | 0.11 |
| G3U A42U | 0.0748 |
| G3C G41C | 0.0352 |
| G2C G5C | 0.0267 |
| G2C G5U | 0.0585 |
| G2C U38A | 0.0483 |
| G3A G5C | 0.123 |
| G3U C33G | 0.0603 |

| Variant | self-cleavage |
| --- | --- |
| G3U G28A | 0.0444 |
| G3C C54U | 0.125 |
| G3C C54A | 0.0635 |
| G2U A16C | 0.0327 |
| G2U A16G | 0.0825 |
| G2C A52G | 0.0291 |
| G2C A52U | 0.0375 |
| G2U G65A | 0.0788 |
| G3A A52C | 0.577 |
| G2U G37C | 0.0385 |
| G3U C12U | 0.169 |
| G3U C12G | 0.0607 |
| G2U G5C | 0.0693 |
| G2U G5A | 0.0678 |
| G3U C29A | 0.0168 |
| G3U C29G | 0.0557 |
| G2C C66G | 0.0186 |
| G2U G14A | 0.0496 |
| G3A U53A | 0.44 |
| G3C A10U | 0.334 |
| G2U C9U | 0.176 |
| G3U A59G | 0.0478 |
| G3U G56A | 0.035 |
| G3C A13G | 0.18 |

| Variant | self-cleavage |
| --- | --- |
| G3U C35U | 0.0525 |
| G2U G30C | 0.0703 |
| G2U G30A | 0.0872 |
| G2C G68U | 0.0864 |
| G3A U61G | 0.278 |
| G2C U55A | 0.0429 |
| G3C C6A | 0.0513 |
| G3A A23U | 0.79 |
| G3C A23U | 0.28 |
| G2C G3U | 0.0339 |
| G3C C24A | 0.0571 |
| G3A G47A | 0.65 |
| G3U C57G | 0.0443 |
| G3U U67G | 0.312 |
| G3U U67C | 0.317 |
| G3C G30U | 0.0314 |
| G3C G5C | 0.0475 |
| G3U G14A | 0.0323 |
| G2C A42C | 0.0895 |
| G2C A42U | 0.0317 |
| G3A A13C | 0.298 |
| G3A U64A | 0.458 |
| G3A U64C | 0.436 |
| G3A U64G | 0.521 |

| Variant | self-cleavage |
| --- | --- |
| G3C C12G | 0.0121 |
| G2C G50A | 0.0951 |
| G2U G50A | 0.0766 |
| G2C U53C | 0.0834 |
| G2C U53A | 0.0158 |
| G3A C22U | 0.0997 |
| G3A U69C | 0.97 |
| G3A U26C | 0.571 |
| G3A U20G | 0.11 |
| G3A U20C | 0.0517 |
| G2U G3U | 0.0485 |
| G3A U36C | 0.433 |
| G3A U36G | 0.206 |
| G3A U36A | 0.0867 |
| G3U G65U | 0.101 |
| G3A C35A | 0.102 |
| G2U U36G | 0.0492 |
| G3U U62C | 0.0865 |
| G3C U44C | 0.132 |
| G2C G25A | 0.0488 |
| G3U C32G | 0.054 |
| G3U C32A | 0.0393 |
| G3U G48U | 0.135 |
| G3U G48C | 0.151 |

| Variant | self-cleavage |
| --- | --- |
| G3U U26A | 0.0295 |
| G2U G11C | 0.0923 |
| G2A U53C | 0.104 |
| G2A U53A | 0.111 |
| G2U U69A | 0.124 |
| G2U U69C | 0.208 |
| G3U U49G | 0.0811 |
| G3U A40C | 0.0469 |
| G2U U49C | 0.0667 |
| G2U U49A | 0.0944 |
| G2U U49G | 0.0431 |
| G3U C18G | 0.0415 |
| G3U C18U | 0.0757 |
| G3U C18A | 0.0631 |
| G3A U46C | 0.597 |
| G3A U46A | 0.67 |
| G3C U67C | 0.218 |
| G3A G58A | 0.315 |
| G3A G58C | 0.338 |
| G2C C27U | 0.0172 |
| G2C U44G | 0.06 |
| G2C U44A | 0.0552 |
| G2C G37C | 0.0304 |
| G3U G4U | 0.0247 |

| Variant | self-cleavage |
| --- | --- |
| G3A C39G | 0.39 |
| G3U C34G | 0.643 |
| G2U C34U | 0.103 |
| G3U G50A | 0.172 |
| G3U G50U | 0.171 |
| G3C U61C | 0.0948 |
| G3C U61A | 0.0406 |
| G3C C63G | 0.0687 |
| G3C C63U | 0.171 |
| G3A C9U | 0.886 |
| G4A A10U | 0.941 |
| G3U A52C | 0.0886 |
| G3U A52G | 0.122 |
| G3U A52U | 0.142 |
| G2U A23G | 0.0867 |
| G2U C57U | 0.0179 |
| G2C C18G | 0.0398 |
| G3U U38A | 0.22 |
| G2C C63U | 0.0396 |
| G2C C63A | 0.0459 |
| G3A C18G | 0.0813 |
| G3A C18A | 0.066 |
| G3U U20G | 0.0082 |
